Laboratory results reported in paper PMC9561763, “Semi-rational engineering membrane binding domain of L-amino acid deaminase from Proteus vulgaris for enhanced α-ketoisocaproate” (Frontiers in Microbiology, 2022).

Substrate: CC(C)C[C@H](N)C(=O)O
Assay: alpha-ketoisocaproate formation, Michaelis-Menten fit
Format: biochemical, Proteus vulgaris
Conditions: 20 mM phosphate pH 7.5, 37 °C, 0-175 mM L-leucine (b36 says optimal temperature and pH), Triton X-100 purified enzyme
Source text: alpha-ketoisocaproate formation, Michaelis-Menten fit on L-amino acid deaminase (L-AAD) from Proteus vulgaris

B1: L-amino acid deaminase (L-AAD) from Proteus vulgaris (Proteus vulgaris) (protein)
chain: MAISRRKFIIGGTVVAVAAGAGILTPMLTREGRFVPGTPRHGFVEGTEGALPKQADVVVVGAGILGIMTAINLVERGLSVVIVEKGNIAGEQSSRFYGQAISYKMPDETFLLHHLGKHRWREMNAKVGIDTTYRTQGRVEVPLDEEDLVNVRKWIDERSKNVGSDIPFKTRIIEGAELNQRLRGATTDWKIAGFEEDSGSFDPEVATFVMAEYAKKMGVRIYTQCAARGLETQAGVISDVVTEKGAIKTSQVVVAGGVWSRLFMQNLNVDVPTLPAYQSQQLISGSPTAPGGNVALPGGIFFREQADGTYATSPRVIVAPVVKESFTYGYKYLPLLALPDFPVHISLNEQLINSFMQSTHWNLDEVSPFEQFRNMTALPDLPELNASLEKLKAEFPAFKESKLIDQWSGAMAIAPDENPIISEVKEYPGLVINTATGWGMTESPVSAELTADLLLGKKPVLDPKPFSLYRF
Km: 17.71 mmol/L
kcat: 1.41 s⁻¹
kcat/Km: 79.5 M⁻¹ s⁻¹
